Source: patent US6623738 (University of California, dated 2003)

Legend:
[1] = target: T1, rat semaphorin receptor 1 (rSR1), full length, expressed on cells (rat, UniProt Q9QWJ9 22-922); experiment: binding to transfected COS-7 cells
T1 construct: also called rat SR1; p28
T1 sequence: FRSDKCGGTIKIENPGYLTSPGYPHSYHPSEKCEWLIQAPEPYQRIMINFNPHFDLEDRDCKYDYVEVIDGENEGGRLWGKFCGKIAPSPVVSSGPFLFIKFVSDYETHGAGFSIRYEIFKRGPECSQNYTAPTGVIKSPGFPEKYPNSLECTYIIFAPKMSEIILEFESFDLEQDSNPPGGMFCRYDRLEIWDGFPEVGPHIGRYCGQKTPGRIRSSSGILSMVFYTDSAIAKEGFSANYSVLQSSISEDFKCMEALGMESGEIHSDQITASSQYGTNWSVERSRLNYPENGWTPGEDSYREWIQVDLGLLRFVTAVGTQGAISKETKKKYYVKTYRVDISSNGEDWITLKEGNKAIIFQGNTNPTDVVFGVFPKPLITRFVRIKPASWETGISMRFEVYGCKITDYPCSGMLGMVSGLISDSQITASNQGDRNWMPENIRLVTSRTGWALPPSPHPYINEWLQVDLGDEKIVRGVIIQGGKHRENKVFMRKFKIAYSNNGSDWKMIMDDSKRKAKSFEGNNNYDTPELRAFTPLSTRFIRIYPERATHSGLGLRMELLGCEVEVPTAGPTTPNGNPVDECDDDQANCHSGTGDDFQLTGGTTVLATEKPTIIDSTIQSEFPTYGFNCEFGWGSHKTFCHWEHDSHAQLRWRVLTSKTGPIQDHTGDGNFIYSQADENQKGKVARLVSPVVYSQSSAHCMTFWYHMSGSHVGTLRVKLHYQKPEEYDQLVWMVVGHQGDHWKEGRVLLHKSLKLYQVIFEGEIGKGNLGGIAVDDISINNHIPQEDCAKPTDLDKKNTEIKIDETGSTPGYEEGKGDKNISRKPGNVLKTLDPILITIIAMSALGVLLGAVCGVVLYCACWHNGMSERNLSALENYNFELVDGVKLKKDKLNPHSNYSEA

[2] = target: T2, mouse neuropilin-2(a5), myc-tagged, expressed in COS-7 cells (mouse, UniProt O35375 21-931); experiment: AP histochemistry on transfected COS cells
T2 construct: also called a5 isoform of neuropilin-2; SR2(a)5
T2 sequence: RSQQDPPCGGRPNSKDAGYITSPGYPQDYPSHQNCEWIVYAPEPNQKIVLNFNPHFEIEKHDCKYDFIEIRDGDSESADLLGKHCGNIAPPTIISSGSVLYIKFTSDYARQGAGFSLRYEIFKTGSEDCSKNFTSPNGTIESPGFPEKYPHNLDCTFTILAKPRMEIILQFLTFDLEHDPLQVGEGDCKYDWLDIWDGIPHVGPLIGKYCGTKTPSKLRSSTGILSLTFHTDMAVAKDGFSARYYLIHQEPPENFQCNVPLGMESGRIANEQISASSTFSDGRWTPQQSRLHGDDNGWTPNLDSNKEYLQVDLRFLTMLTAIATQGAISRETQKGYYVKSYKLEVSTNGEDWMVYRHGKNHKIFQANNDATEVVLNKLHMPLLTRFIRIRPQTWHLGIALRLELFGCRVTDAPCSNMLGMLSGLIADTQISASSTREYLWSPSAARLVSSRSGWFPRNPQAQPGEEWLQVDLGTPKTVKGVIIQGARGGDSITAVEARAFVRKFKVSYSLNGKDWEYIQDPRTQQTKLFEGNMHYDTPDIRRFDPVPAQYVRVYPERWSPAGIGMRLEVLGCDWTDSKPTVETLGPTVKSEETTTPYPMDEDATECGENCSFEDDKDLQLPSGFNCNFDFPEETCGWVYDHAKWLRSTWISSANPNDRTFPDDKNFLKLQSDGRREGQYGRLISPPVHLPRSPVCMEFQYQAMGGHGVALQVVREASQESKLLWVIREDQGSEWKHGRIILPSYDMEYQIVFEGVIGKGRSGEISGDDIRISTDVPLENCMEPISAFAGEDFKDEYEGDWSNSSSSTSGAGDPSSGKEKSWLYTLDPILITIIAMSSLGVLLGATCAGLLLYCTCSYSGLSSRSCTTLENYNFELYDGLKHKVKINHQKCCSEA

[3] = target: T3, mouse neuropilin-2(a22), myc-tagged, expressed in COS-7 cells (mouse, UniProt O35375 21-931); experiment: AP histochemistry on transfected COS cells
T3 construct: also called SR2(a)22
T3 sequence: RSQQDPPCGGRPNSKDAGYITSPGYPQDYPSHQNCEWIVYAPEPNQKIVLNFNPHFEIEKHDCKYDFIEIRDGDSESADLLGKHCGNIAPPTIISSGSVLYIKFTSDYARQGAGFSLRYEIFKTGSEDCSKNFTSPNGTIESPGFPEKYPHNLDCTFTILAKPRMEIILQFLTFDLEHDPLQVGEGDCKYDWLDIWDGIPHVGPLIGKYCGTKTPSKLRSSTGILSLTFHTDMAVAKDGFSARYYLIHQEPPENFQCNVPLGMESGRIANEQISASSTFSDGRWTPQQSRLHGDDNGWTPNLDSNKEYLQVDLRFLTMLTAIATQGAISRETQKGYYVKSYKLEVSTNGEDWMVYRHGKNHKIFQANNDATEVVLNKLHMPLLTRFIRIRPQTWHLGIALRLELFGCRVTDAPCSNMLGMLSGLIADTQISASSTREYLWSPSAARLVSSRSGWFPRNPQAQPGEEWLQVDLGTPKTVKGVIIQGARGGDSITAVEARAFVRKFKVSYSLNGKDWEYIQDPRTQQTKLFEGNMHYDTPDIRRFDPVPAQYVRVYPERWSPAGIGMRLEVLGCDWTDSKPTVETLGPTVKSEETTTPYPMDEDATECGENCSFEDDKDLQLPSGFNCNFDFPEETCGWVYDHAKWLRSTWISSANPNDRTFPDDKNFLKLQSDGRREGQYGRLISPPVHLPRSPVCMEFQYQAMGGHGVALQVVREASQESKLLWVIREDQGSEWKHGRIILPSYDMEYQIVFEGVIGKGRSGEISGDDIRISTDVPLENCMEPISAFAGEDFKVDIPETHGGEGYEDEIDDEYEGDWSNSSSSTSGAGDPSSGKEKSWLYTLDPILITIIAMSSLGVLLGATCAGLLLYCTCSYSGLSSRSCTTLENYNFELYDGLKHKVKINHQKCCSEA

[4] = target: T4, mouse neuropilin-2(a0), myc-tagged, expressed in COS-7 cells (mouse, UniProt O35375 21-931); experiment: AP histochemistry on transfected COS cells
T4 construct: also called SR2(a)0; m-npn-2
T4 sequence: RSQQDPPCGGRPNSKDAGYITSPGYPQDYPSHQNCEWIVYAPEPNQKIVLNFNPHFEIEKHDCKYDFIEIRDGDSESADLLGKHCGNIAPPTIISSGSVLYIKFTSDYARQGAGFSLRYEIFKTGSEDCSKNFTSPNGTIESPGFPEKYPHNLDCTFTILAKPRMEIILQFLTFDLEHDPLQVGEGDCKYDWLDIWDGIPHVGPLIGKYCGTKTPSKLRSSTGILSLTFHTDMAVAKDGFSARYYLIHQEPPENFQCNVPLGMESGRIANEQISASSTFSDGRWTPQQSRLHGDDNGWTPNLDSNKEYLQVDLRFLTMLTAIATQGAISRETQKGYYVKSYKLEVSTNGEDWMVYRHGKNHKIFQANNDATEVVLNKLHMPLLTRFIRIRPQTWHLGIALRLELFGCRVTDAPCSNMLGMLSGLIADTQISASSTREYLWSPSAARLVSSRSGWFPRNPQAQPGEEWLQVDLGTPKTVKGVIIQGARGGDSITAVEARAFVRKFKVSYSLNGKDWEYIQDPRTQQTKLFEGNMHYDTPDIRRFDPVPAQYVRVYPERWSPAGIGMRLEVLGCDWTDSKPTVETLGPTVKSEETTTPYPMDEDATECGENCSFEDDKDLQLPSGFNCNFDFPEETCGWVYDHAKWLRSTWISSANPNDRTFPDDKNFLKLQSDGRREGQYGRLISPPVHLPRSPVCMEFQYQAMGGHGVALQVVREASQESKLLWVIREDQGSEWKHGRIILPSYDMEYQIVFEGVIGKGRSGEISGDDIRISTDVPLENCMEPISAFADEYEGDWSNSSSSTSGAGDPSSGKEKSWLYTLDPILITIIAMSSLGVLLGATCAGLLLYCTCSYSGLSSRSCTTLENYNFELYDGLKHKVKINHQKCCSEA

Measured: binding result

B1: alkaline phosphatase (AP) alone (enzyme, UniProt P05187 23-511, looked up)
chain: IIPVEEENPDFWNREAAEALGAAKKLQPAQTAAKNLIIFLGDGMGVSTVTAARILKGQKKDKLGPEIPLAMDRFPYVALSKTYNVDKHVPDSGATATAYLCGVKGNFQTIGLSAAARFNQCNTTRGNEVISVMNRAKKAGKSVGVVTTTRVQHASPAGTYAHTVNRNWYSDADVPASARQEGCQDIATQLISNMDIDVILGGGRKYMFRMGTPDPEYPDDYSQGGTRLDGKNLVQEWLAKRQGARYVWNRTELMQASLDPSVTHLMGLFEPGDMKYEIHRDSTLDPSLMEMTEAALRLLSRNPRGFFLFVEGGRIDHGHHESRAYRALTETIMFDDAIERAGQLTSEEDTLSLVTADHSHVFSFGGYPLRGSSIFGLAPGKARDRKAYTVLLYGNGPGYVLKDGARPDVTESESGSPEYRQQSAVPLDEETHAGEDVAVFARGPQAHLVHGVQEQTFIAHVMAFAACLEPYTACDLAPPAGTTDAAHPG
notes: Control protein; also called alkaline phosphatase protein
no binding: all assays above
